These results are taken from patent US20080064629A1, “Amphiregulin as a Protective Agent in Acute Hepatic Injury” (priority 2004, published 2008).

Holding throughout (type): cell-based
Assay [1] relates to cultured mouse hepatocytes. Put plainly: Antiapoptotic signaling pathways (Western blot of phosphorylation) in cultured mouse hepatocytes. To be noted: AR 20 nM, different times. Here is the method: (§1) Hepatocytes were isolated from male Wistar rats (150 g) and C57/BL6 mice (20 g) by perfusion with collagenase (Gibco-BRL, Paisley, UK) as described elsewhere [(18), (20)]. Cells (5×10^5 cells per well) were plated onto 6-well plates coated with collagen (type I collagen, Collaborative Biomedical, Bedford, Mass., USA). Cultures were maintained in MEM medium supplemented with 10% fetal calf serum (FCS), non-essential amino acids, glutamine 2 mM and antibiotics (all supplied by Gibco-BRL). After 2 h of incubation, the medium was removed and cells were again cultured in the same medium with 5% FCS. Where applicable, hepatocytes were treated with IL-1β or TNFα from Roche (Mannheim, Germany), HGF or forskolin from Calbiochem (San Diego, Calif., USA), IL6 from RD Systems (Wiesbaden-Nordenstadt, Germany), or PGE2 from Alexis QBiogene (Carlsbad, Calif., USA).
(§2) Homogenates from liver samples and isolated hepatocytes were subjected to Western blot analysis as described elsewhere [(19, (20)]. Antibodies used were: affinity purified and biotinylated polyclonal antibody specifically targeted to murine AR (BAF989)(RD Systems); specific antibodies for the p17 subunit of active caspase-3 (9664S), phosphorylated Akt (Ser473) (9271S) and phosphorylated STAT3 (Tyr^705) (9131S) (Cell Signaling, Beverly, Mass., USA); ERK1/2 (06-182), phosphorylated EGF-R (Tyr^1173)(05-483) and STAT3 (06-596)(Upstate Biotechnology, Charlottesville, Va., USA). All other antibodies were from Santa Cruz Biotechnology (Santa Cruz, Calif., USA): BclxL (sc8392), Bcl2 (sc7382), EGF-R (sc-03), phosphorylated ERK1/2 (Tyr^204) (sc7383), Akt (sc5298), JNK (sc571), and phosphorylated JNK (Thr^183/Tyr^185) (sc6254).
(A western blot detects proteins with antibodies after separation by electrophoresis.)

For a further assay, the system named is cultured rat hepatocytes. Put plainly: EGF-R and proliferation signaling pathways (Western blot of phosphorylation) in cultured rat hepatocytes. Here is the method: as §1, §2
For assay [2], the system named is mouse hepatocytes in primary culture. Description: Apoptosis induced by actinomycin D and Jo2 antibody in mouse hepatocytes in primary culture.
Excerpt: In order to determine whether the in vivo antiapoptotic effects of AR could be mediated by direct action of AR on liver parenchymal cells, the inventors used mouse hepatocytes in primary culture. It has been reported that hepatocytes exposed to Jo-2 antibodies undergo apoptosis effectively in presence of actinomycin D [(5), (6), (33) Ni, R., Tomita, Y., Matsuda, K., Ichiara, A., Ishimura, K., Ogasawara, J., Nagata, S. 1994. Fas-mediated apoptosis in primary cultured mouse hepatocytes. Exp. Cell Res. 215: 332-337]. Hepatocytes were pretreated with different concentrations of AR during […] before addition of actinomycin D and Jo2 antibody. Measurements of apoptosis and related molecular events, were made 18 h later. […] Likewise, they found antiapoptotic protein Bcl-xL to be induced by treatment with AR in mouse hepatocytes treated with Jo2 (FIG. 4B). In order to identify the AR antiapoptotic signaling mechanisms, PI-3K/Akt and ERK1/2 pathways were studied, as they are general mediators of cell survival [(4), (6)]. […] A key signaling molecule implicated in protection against liver damage induced by Fas is STAT3 [(34) Shen, Y., Devgan, G., Darnell, J. E., Bromberg, J. F. 2001. Constitutively activated Stat3 protects fibroblasts from serum withdrawal and UV-induced apoptosis and antagonizes the proapoptotic effects of activated Statl. Proc. Natl. Acad. Sci. USA. 98: 1543-1548. (35) Haga, S., Terui, K., Zhang, H. Q., Enosawa, S., Ogawa, W., Inoue, H., Okuyama, T., Takeda, K., Akira, S., Ogino, T., et al. 2003. Stat3 protects against Fas-induced liver injury by redox-dependent and -independent mechanisms. J. Clin. Invest. 112: 989-998].
as §1
Apoptosis was induced in cultured mouse hepatocytes by treatment with 0.5 μg/ml of Jo2 antibody and 0.05 μg/ml of actinomycin D as described elsewhere (5). Where applicable, the hepatocytes were treated with AR 6 h before the addition of Jo2 antibody and actinomycin D. Apoptosis was estimated by determining soluble histone-DNA complexes using the Cell Death Detection Assay (Roche). ELISA tests for determining cell death were carried out following the manufacturer's instructions. The specific enrichment of mono- and oligonucleosomes released in the cytoplasm (enrichment factor, EF) was calculated as the ratio between the absorbance values of the samples corresponding to treated cells and control cells. […]
Caspase-3 activity in mouse hepatocytes and liver tissue lysates was assessed using the Caspase-3/CPP32 colorimetric assay kit (BioVision, Palo Alto, Calif., USA). […]

The next assay has as its system isolated rat hepatocytes. Description: TGFα and CT-1 gene expression in cultured rat hepatocytes treated with AR. As to conditions: AR treatment, different periods of time. Here is the method:
as §1, with “Where applicable, hepatocytes were treated with IL-1β or TNFα from Roche (Mannheim, Germany), HGF or forskolin from Calbiochem (San Diego, Calif., USA), IL6 from RD Systems (Wiesbaden-Nordenstadt, Germany), or PGE2 from Alexis QBiogene (Carlsbad, Calif., USA).” left out
Total RNA was extracted using TRI reagent (Sigma). […] PCR products were subjected to electrophoresis in 2% agarose gels, followed by staining with ethidium bromide and quantification using Molecular Analyst software (Bio-Rad, Hercules, Calif., USA). […]
Real time PCR was performed using an iCycler (BioRad) and iQ SYBR Green Supermix (Bio-Rad). In order to monitor the specificity of final PCR products, the latter were analysed by fusion curves and electrophoresis. The amount of each transcript was expressed as n-fold the difference versus expression of the reference gene (β-actin)(2^ΔCt, where ΔCt represents the difference in threshold cycle between target genes and control gene).

Where [3] appears, read: rat hepatocytes, different times after addition of AR.

B1: amphiregulin (protein)
chain: SVRVEQVVKPPQNKTESENTSDKPKRKKKGGKNGKNRRNRKKKNPCNAEFQNFCIHGECKYIEHLEAVTCKCQQEYFGERCGEKSMKTHSMIDSSLSK
notes: polypeptide growth factor belonging to the EGF family, ligand of EGF receptor; human recombinant AR (Sigma) used
On to B1, for which, in assay [1], the “phosphorylation of Akt” value is “increased phosphorylation”, the “phosphorylation of ERK1/2” value is on record as “increased phosphorylation” and the “phosphorylation of STAT3” value was “stimulate phosphorylation”. For the same molecule, in the assay with cultured rat hepatocytes (isolated rat hepatocytes treated with AR), the “phosphorylation of EGF-R on tyrosine residues” value is “rapid and transient phosphorylation”. In the assay with cultured rat hepatocytes (setting [3]), the JNK phosphorylation result was “observed JNK phosphorylation”, the “phosphorylation of Akt” value is recorded as “rapidly induces phosphorylation” and the “phosphorylation of ERK1/2” value was “rapidly induces phosphorylation”. Further, in assay [2] (AR 20 nM, mouse hepatocytes treated with Jo2), the “antiapoptotic protein Bcl-xL (Western blot)” value is listed as “induced”. Also, the “proteolysis and activation of caspase-3 induced by Jo2 antibody” value in assay [2] (AR 20 nM, mouse hepatocytes treated with actinomycin D and Jo2) is listed as “significantly inhibited”. The “apoptosis (enrichment factor of mono- and oligonucleosomes)” value in assay [2] (increasing concentrations of AR before actinomycin D and Jo2, measured 18 h later) is “protected from apoptosis by AR in a dose-dependent manner”. Further, in the assay on isolated rat hepatocytes, the “levels of mRNA encoding CT-1” value is “increased” and the “levels of mRNA encoding TGFα” value is listed as “increased”.
